This experiment has as its target S. pombe histones H3−H4 (S. pombe, UniProt P09988 1-136; P09322 1-103). In words: SEC.

B1: SpCAF-1 complex (Pcf1-Pcf2-Pcf3), wild type, full length (complex, S. pombe)
chain 1: MNSESVDSDVAASTSNKGNELCSSSTDITSLSVSSPNESVIHSSHSASEADEYVCKLSYEGNRKKRIYNGSAEAGKEKKLQKQRAQEERIRQKEAERLKREKERQQREQEKKLREQEKIAAKKMKELEKLEKERIRLQEQQRRKEERDQKLREKEEAQRLRQEQILNKERQQLKLNNFFTKGVEKRIAPNENFVADKTDELNEFEKEFRPFFIKHQMSLSKYPSPNESDSFLDEVLSTSKSYPLKLNDIFTPSDAVSSANSLGVSNRNSENEVRQLMSAYQDPSVSKPQEILSCLSQIPIKFIFFYQDVRPPYFGSYTKTHSHGSNVLLNPWLEDEDIDYTYDSEAEWVADEEDDGEDLESEDEEVDNSDDIVEDGDNAFVDDEDDDKDSVNASNTHRSSGPLEVIVEGPVWDSKFLPDFNCLSLIEPISSFSASTYLQIDPKEDLWASQDTAPASSGMTIGPTSSLSDDLQVRFPSEDIPKFIEYVRNSHDNKVFLIENLRHMFPYVTKNIISETLGKVAVRKGKSVSDGWIIKENFASLLSS
chain 2: MRAEVLQIRWHYDANDDHTPIYSVDFQKNSLNKFATCGGDSKIRIWQLITSESSTKVEYLSTLSRHTQAVNVVRFNPEGNILATAGDEGTIMLWVPTNTPITTLADDAEELALAKEYWKVKIVCRSMGSEIYDLCWSVDSNFLIAGAMDNSLRLYDAHTGQLLTQKFDHSHYVQGVCWDPLNQYIVSESSDRSICLYEIQEEKKNPKKFQLVLKSRICRIEYNVTKFELISVTKPLNNDESSGISEPIETSNNNESPVSKHEALSSTANIVKDGSLERTEPPNSLNSKISYSLYCNETLVSFFRRPAFSPDGLLLVTPAGRLRPHGQPNFEVPYTAYIYTRGSITKQPVACLNGFKKPVIAVRFSPIHYELNSFSNFSFTSVSFNLPYRMVFAVACQDAVYIYDTQTCKPFYRAVNLHYSNLTDIAWNDDGNVLLMTSIDGFCSVITFEPGELGVKSQHKISLPEKRSASPSSIDDSQDNTAGGPATTTLIPRKVESSKVSKKRIAPTPVYP
chain 3: MNTELDMQNFEHIKFLENQISEDHFRWKKNSKHLYNLLITRTLTWPSLSIQWLSAMESITEKAVLKNRLLLGTHAAEGMPNFLQLADLDLPDFNQTILDPVKHYNEDTGELGGYSMQHSCKFQISQRILHNGDVNRVRHMPQNPNIIATMSSCGNAYIFDRTKYTSMPAEEFLPNISLIGHKKEGFGLSWNRQQNCRLVTAANDSKILEWDLNNFSRDTRCLTPVKDFHYDDSPVNDVEYHPHHTNLYIAVNDNGIAFICDNRLQQTCSKTVKASNPLFSVRHNPSIATLFALGSEQDLQLWDLRNLNKSVFNTSEDLSDNRLKVPSRLTLGGTSLSWSWRHSGRIVSACQEYCYVWNFNKANPLEFVHAGHKGTVNEVDFDPFEAQCIASVADDNELHIWKPNVIVN
With B1, the binding result is listed as “binds”.

(Values after article PMC10942606 (eLife, 2023).)
